Laboratory results published in paper doi:10.1101/2022.11.09.514853 (bioRxiv, 2022).

Biological target: the molecule itself
Test: cryo-EM structure

B1: human GluN2D, C-terminal domain truncated (M1-P879), Strep-tag II (receptor, UniProt O15399 28-879, looked up)
chain: FPEEAPGPGGAGGPGGGLGGARPLNVALVFSGPAYAAEAARLGPAVAAAVRSPGLDVRPVALVLNGSDPRSLVLQLCDLLSGLRVHGVVFEDDSRAPAVAPILDFLSAQTSLPIVAVHGGAALVLTPKEKGSTFLQLGSSTEQQLQVIFEVLEEYDWTSFVAVTTRAPGHRAFLSYIEVLTDGSLVGWEHRGALTLDPGAGEAVLSAQLRSVSAQIRLLFCAREEAEPVFRAAEEAGLTGSGYVWFMVGPQLAGGGGSGAPGEPPLLPGGAPLPAGLFAVRSAGWRDDLARRVAAGVAVVARGAQALLRDYGFLPELGHDCRAQNRTHRGESLHRYFMNITWDNRDYSFNEDGFLVNPSLVVISLTRDRTWEVVGSWEQQTLRLKYPLWSRYGRFLQPVDDTQHLTVATLEERPFVIVEPADPISGTCIRDSVPCRSQLNRTHSPPPDAPRPEKRCCKGFCIDILKRLAHTIGFSYDLYLVTNGKHGKKIDGVWNGMIGEVFYQRADMAIGSLTINEERSEIVDFSVPFVETGISVMVARSNGTVSPSAFLEPYSPAVWVMMFVMCLTVVAVTVFIFEYLSPVGYNRSLATGKRPGGSTFTIGKSIWLLWALVFNNSVPVENPRGTTSKIMVLVWAFFAVIFLASYTANLAAFMIQEEYVDTVSGLSDRKFQRPQEQYPPLKFGTVPNGSTEKNIRSNYPDMHSYMVRYNQPRVEEALTQLKAGKLDAFIYDAAVLNYMARKDEGCKLVTIGSGKVFATTGYGIALHKGSRWKRPIDLALLQFLGDDEIEMLERLWLSGICHNDKIEVMSSKLDIDNMAGVFYMLLVAMGLSLLVFAWEHLVYWRLRHCLGP
Question: Does B1 bind?
Answer: Result: binds
